Data as given in US10604566B2, “Antagonists of IL-17C for the treatment and/or prevention of atopic dermatitis” (MORPHOSYS AG, priority 2015, dated 2020).

T1: murine IL-17C (Mus musculus, UniProt Q8K4C5)
T1 sequence (Q8K4C5 17-194): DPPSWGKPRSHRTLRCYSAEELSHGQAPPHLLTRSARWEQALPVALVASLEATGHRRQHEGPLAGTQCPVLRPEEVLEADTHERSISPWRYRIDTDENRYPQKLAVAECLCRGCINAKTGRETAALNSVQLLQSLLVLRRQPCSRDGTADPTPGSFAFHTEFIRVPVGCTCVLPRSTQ

T2: human IL-17C (Homo sapiens, UniProt Q9P0M4)
T2 sequence (Q9P0M4 19-197): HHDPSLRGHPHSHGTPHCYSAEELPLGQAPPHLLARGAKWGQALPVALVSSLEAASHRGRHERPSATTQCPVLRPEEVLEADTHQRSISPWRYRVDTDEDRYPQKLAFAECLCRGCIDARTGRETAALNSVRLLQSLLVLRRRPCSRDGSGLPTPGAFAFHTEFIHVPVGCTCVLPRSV


How the values were obtained:
[1] = tested on: MC903-treated mice; assay: MC903 mouse model of atopic dermatitis; format: in vivo, BALB/c mice; settings: 3x10 mg/kg i.p.
Text: The pro-inflammatory function of IL-17C in atopic dermatitis was examined in a non-infectious cutaneous inflammation mouse model of atopic dermatitis where topical application of the low-calcemic vitamin D3 analogue MC903 (calcipotriol) induces atopic dermatitis like skin lesion characterized by a red and scaly skin, accompanied by an epidermal hyperplasia and dermal infiltration of various cell types as well as an increase of Th2 cytokine in skin and elevated serum IgE (Li et al., 2006; Li et al, 2009). The MC903 mouse model is a widely accepted and predictable model to mimic the Th2 driven symptoms of atopic dermatitis in vivo.
BALB/c mice (female, 8-week old) were obtained from Janvier Labs (France). Mice were kept on a 12 hours light/dark cycle (0700-1900). Temperature was maintained at 22° C., and food and water were provided ad libitum.
In order to induce an AD-like response, 2 nmol MC903 (Tocris, dissolved in ethanol) was topical applied in a volume of 20 μL on both ears of mice for 5 consecutive days. A non-disease control group received the same quantity of ethanol (EtOH).
The severity of skin inflammation (erythema and thickening) was observed daily. Ear thickness was measured with an electronic caliper (Mitutoyo). Inflammation was further assessed using an in vivo imaging technique. To that end, Prosense 680 probe (1.6 nmol, Perkin Elmer) was administered by intraperitoneal route 24 hours before imaging. Imaging was performed with the Bruker In-vivo Xtreme Imaging System. Images were captured by a deeply cooled 4MP CCD camera (f-stop 1.1, binning 2×2, 5 sec acquisition time, Ex 630 nm, Em 700 nm). For anatomical co-registration, a reflectance image was taken (f-stop 2.8, 0.175 sec acquisition time). All images were taken with a 190×190 field of view and images were analysed using Molecular Imaging Software version 7.1 (Bruker Biospin, Billerica, Mass., USA). For each group, the mean values and standard error of mean (sem) was calculated using for each mouse the mean value of left and right ear.
At sacrifice, samples form ear skin were collected and fixed in 4% formaldehyde before embedding in paraffin. 4 μm-thick slices were stained with hematoxylin and eosin (H&E stain) for histomorphometric evaluation of epidermal thickness by image analysis with Sisn'Com software (France). Five fields per ear (high power field ×20) covering the whole ear from top to bottom were measured, and the 5 values were averaged per ear and per mice (left/right ear). An additional set of tissue slices were prepared for IHC staining of IL-17C using the anti-IL-17C biotinylated MOR12743 antibody (and biotinylated MOR03207 isotype negative control antibody). Processing and staining was essentially done as described above.
Ear skin samples were also taken for analysis of cytokine expression using qPCR or ELISA. […] Ear skin sam pies for quantification at protein level were immediately snap frozen in liquid N2 and stored at −80° C. […] 5 μL of 10-fold diluted cDNA was used in real-time quantitative PCR reactions using SYBR Green technology with gene-specific primers from Qiagen. qPCR was performed on the ViiA™ 7 Real-Time PCR System (Applied Biosystems). Gene expression was normalized to the expression of 3 different house-keeping genes (cyclophilin, b-actin and GAPDH) and expressed as relative mRNA level of specific gene expression as obtained using the 2^−ΔCt method, with ΔCt=Ctgene−Geomean Ct-value (housekeeping genes). […]

[2] = biological target: T1, murine IL-17C; assay: Binding to murine IL-17C and inhibition of IL-17C binding to IL-17RE
Procedure: (§1) The following working examples were performed using the antibodies MOR12743 and MOR22420 (see Table 1). […] Therefore both antibodies are antagonists of IL-17C in the sense of the present disclosure. MOR12743 is already disclosed and characterized in WO 2013/057241 (U.S. Ser. No. 14/351,162), which is incorporated by reference in its entirety.

[3] = biological target: T2, human IL-17C; assay: Binding to human IL-17C and inhibition of IL-17C binding to IL-17RE
Procedure: as §1

Molecule | ear inflammation as assessed by in vivo imaging ([1]; day 5, Prosense 680 probe, FIG. 6) | ear redness ([1]; day 8, vs MC903+MOR03207 isotype control) | ear swelling (ear thickness) ([1]; day 8, vs MC903+MOR03207 isotype control, FIG. 5) | epidermal hyperplasia (epidermal thickness) ([1]; histology H&E at sacrifice, FIG. 7) | TSLP expression in ears ([1]; protein, ELISA, FIG. 8) | inhibition of binding of IL-17C to its receptor IL-17RE [2] | specific binding to IL-17C [2] | inhibition of binding of IL-17C to its receptor IL-17RE [3] | specific binding to IL-17C [3]
MOR12743: anti-IL-17C antibody, binds murine IL-17C; VH SEQ ID No.: 11, VL SEQ ID No.: 10; disclosed in WO 2013/057241 (antibody, V domains shown, mab Library) VH: QVQLVQSGAEVKKPGASVKVSCKASGYTFTSNFIHWVRQAPGQGLEWMGWISPYNGDTNYAQKFQGRVTMTRDTSISTAYMELSRLRSEDTAVYYCARESVYYGSDYGYNGMDIWGQGTLVTVSS VL: DIELTQPPSVSVSPGQTASITCSGDNLGEEYVSWYQQKPGQAPVLVIYDDTKRPSGIPERFSGSNSGNTATLTISGTQAEDEADYYCASWDLWSVEVFGGGTKLTVLGQ | significantly reduced | less red | significantly less swollen | partially reduced | significantly inhibited | inhibit binding of IL-17C to its receptor IL-17RE | specifically bind |  | 
MOR22420: anti-IL-17C antibody, binds human IL-17C; VH SEQ ID No.: 21, VL SEQ ID No.: 20 (antibody, V domains shown, mab Library) VH: QVQLVQSGAEVKKPGSSVKVSCKASGGTFSSYAISWVRQAPGQGLEWMGTIDPFFGKTYYAQKFQGRVTITADESTSTAYMELSSLRSEDTAVYYCARDVSSISYYFHEYYSDRFDYWGQGTLVTVSS VL: DIALTQPASVSGSPGQSITISCTGTSSDVGGYEYVNWYQQHPGKAPKLMIYDDSYRPSGVSNRFSGSKSGNTASLTISGLQAEDEADYYCQSTDPHSTVVFGGGTKLTVLGQ |  |  |  |  |  |  |  | inhibit binding of IL-17C to its receptor IL-17RE | specifically bind
